For the assay, the system named is c-fos SRE activation in CHO cells stably expressing D2R. Put plainly: SRE-luciferase reporter assay, quinpirole-stimulated c-fos SRE activation in CHO-D2R cells. It is filed as cell-based, Chinese hamster. The settings on record: for effect of RGS transfection on quinpirole dose-response curve of SRE activation: RGS (2 μg) transfected alone, no Gα co-transfection; for reduction in SRE activation: RGS co-expressed with Gαq/i chimera.

A value given as a limit tells only on which side of the number the result lay.

B1: RGSz1: human RGSz1 expressed from pCR3.1; highly selective for Gαz (protein)
chain: MPQLSQDNQECLQKHFSRPSIWTQFLPLFRAQRYNTDIHQITENEGDLRAVPDIKSFPPAQLPDSPAAPKLFGLLSSPLSSLARFFSHLLRRPPPEAPRRRLDFSPLLPALPAARLSRGHEELPGRLSLLLGAALALPGRPSGGRPLRPPHPVAKPREEDATAGQSSPMPQMGSERMEMRKRQMPAAQDTPGAAPGQPGAGSRGSNACCFCWCCCCSCSCLTVRNQEDQRPTIASHELRADLPTWEESPAPTLEEVNAWAQSFDKLMVTPAGRNAFREFLRTEFSEENMLFWMACEELKKEANKNIIEEKARIIYEDYISILSPKEVSLDSRVREVINRNMVEPSQHIFDDAQLQIYTLMHRDSYPRFMNSAVYKDLLQSLSEKSIEA
For the molecule B1, the “effect of RGS transfection on quinpirole dose-response curve of SRE activation” value (from here on “effect of RGS transfection”) is “rightward shift of the dose-response curve”.

B2: RGS4: human RGS4 expressed from pCR3.1; potent GAP for both Gαq and Gαi (protein)
chain: MCKGLAGLPASCLRSAKDMKHRLGFLLQKSDSCEHNSSHNKKDKVVICQRVSQEEVKKWAESLENLISHECGLAAFKAFLKSEYSEENIDFWISCEEYKKIKSPSKLSPKAKKIYNEFISVQATKEVNLDSCTREETSRNMLEPTITCFDEAQKKIFNLMEKDSYRRFLKSRFYLDLVNPSSCGAEKQKGAKSSADCASLVPQCA
Turning to B2, the “effect of RGS transfection” value was “rightward shift of the dose-response curve” and the “reduction in SRE activation” value is given as “about 60%”. Moreover, where the note is “RGS co-expressed with Gαi1, 100 nM quinpirole”, the “reduction in quinpirole-stimulated SRE activation” value is “approximately 85%”. For the same molecule, for the setting “RGS co-transfected with Gαi1, all quinpirole concentrations used (10 nM-100 μM)”, the “inhibition (attenuation) of SRE activation” value is above 80%. Also, the “reduction in quinpirole-stimulated SRE activation” value (RGS transfected without Gαi1 co-transfection, 100 nM quinpirole) was “approximately 40%”.

B3: RGS2: human RGS2 expressed from pCR3.1; selective GAP for Gαq (protein)
chain: MQSAMFLAVQHDCRPMDKSAGSGHKSEEKREKMKRTLLKDWKTRLSYFLQNSSTPGKPKTGKKSKQQAFIKPSPEEAQLWSEAFDELLASKYGLAAFRAFLKSEFCEENIEFWLACEDFKKTKSPQKLSSKARKIYTDFIEKEAPKEINIDFQTKTLIAQNIQEATSGCFTTAQKRVYSLMENNSYPRFLESEFYQDLCKKPQITTEPHAT
Regarding B3, the “effect of RGS transfection” value is given as “rightward shift of the dose-response curve” and the “reduction in SRE activation” value was “approximately 70%”.

For the origin of these results see patent publication US20030119716A1, “Methods for screening, treating and diagnosing G-protein coupled receptor-related disorders and compositions thereof” (Wyeth, priority 2001, published 2003).
